According to PMC6547726, “Advanced FRET normalization allows quantitative analysis of protein interactions including stoichiometries and relative affinities in living cells” (Scientific Reports, 2019):

T1: YFP-tagged IKKα (UniProt O15111 1-745)
T1 construct: IKKα, IKK subunit α of the NF-kappaB pathway; FRET donor; also called IKK subunit α; source: HeLa cells (clone ACC 57), transfected, in living cells
T1 sequence (looked up): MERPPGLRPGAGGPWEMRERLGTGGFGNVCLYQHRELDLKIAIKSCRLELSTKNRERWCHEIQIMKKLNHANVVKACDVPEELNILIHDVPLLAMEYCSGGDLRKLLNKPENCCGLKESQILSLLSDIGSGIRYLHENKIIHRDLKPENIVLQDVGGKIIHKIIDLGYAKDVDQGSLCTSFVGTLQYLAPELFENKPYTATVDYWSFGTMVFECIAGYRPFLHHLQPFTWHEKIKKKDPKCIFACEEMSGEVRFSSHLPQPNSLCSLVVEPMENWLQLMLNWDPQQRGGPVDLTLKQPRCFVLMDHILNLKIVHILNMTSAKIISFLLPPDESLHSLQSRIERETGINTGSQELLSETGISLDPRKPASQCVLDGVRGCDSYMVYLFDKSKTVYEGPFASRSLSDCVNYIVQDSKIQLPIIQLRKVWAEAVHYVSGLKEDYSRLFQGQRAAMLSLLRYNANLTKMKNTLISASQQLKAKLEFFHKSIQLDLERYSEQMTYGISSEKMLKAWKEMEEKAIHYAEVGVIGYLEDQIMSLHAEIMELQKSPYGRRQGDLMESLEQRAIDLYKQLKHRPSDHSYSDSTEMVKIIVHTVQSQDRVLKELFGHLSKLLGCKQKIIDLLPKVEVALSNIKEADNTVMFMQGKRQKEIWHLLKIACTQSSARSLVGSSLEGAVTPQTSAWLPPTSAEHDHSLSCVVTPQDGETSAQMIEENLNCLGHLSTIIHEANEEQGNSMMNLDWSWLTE

B1: mCherry-tagged IKKβ (natural protein, UniProt O14920 1-756, looked up)
chain: MSWSPSLTTQTCGAWEMKERLGTGGFGNVIRWHNQETGEQIAIKQCRQELSPRNRERWCLEIQIMRRLTHPNVVAARDVPEGMQNLAPNDLPLLAMEYCQGGDLRKYLNQFENCCGLREGAILTLLSDIASALRYLHENRIIHRDLKPENIVLQQGEQRLIHKIIDLGYAKELDQGSLCTSFVGTLQYLAPELLEQQKYTVTVDYWSFGTLAFECITGFRPFLPNWQPVQWHSKVRQKSEVDIVVSEDLNGTVKFSSSLPYPNNLNSVLAERLEKWLQLMLMWHPRQRGTDPTYGPNGCFKALDDILNLKLVHILNMVTGTIHTYPVTEDESLQSLKARIQQDTGIPEEDQELLQEAGLALIPDKPATQCISDGKLNEGHTLDMDLVFLFDNSKITYETQISPRPQPESVSCILQEPKRNLAFFQLRKVWGQVWHSIQTLKEDCNRLQQGQRAAMMNLLRNNSCLSKMKNSMASMSQQLKAKLDFFKTSIQIDLEKYSEQTEFGITSDKLLLAWREMEQAVELCGRENEVKLLVERMMALQTDIVDLQRSPMGRKQGGTLDDLEEQARELYRRLREKPRDQRTEGDSQEMVRLLLQAIQSFEKKVRVIYTQLSKTVVCKQKALELLPKVEEVVSLMNEDEKTVVRLQEKRQKELWNLLKIACSKVRGPVSGSPDSMNASRLSQPGQLMSQPSTASNSLPEPAKKSEELVAEAHNLCTLLENAIQDTVREQDQSFTALDWSWLQTEEEEHSCLEQAS
notes: IKKβ, IKK subunit β of the NF-kappaB pathway; FRET acceptor; also called IKK subunit β; source: HeLa cells (clone ACC 57), transfected, in living cells

How the values were obtained:
YFP-p65 = YFP-p65 (UniProt Q04206); assay: FRET or BRET; 3-filter FRET by flow cytometry (CYTOFLEX S) of living transfected HeLa cells, five plasmid ratios; DFRET of single cells fitted to a law-of-mass-action model (Ka^app apparent, z, FRETmax)
YFP-tagged IKKα = target: T1, YFP-tagged IKKα; assay: as above; settings: partners not purified

Sequence of YFP-p65 (Q04206 whole entry): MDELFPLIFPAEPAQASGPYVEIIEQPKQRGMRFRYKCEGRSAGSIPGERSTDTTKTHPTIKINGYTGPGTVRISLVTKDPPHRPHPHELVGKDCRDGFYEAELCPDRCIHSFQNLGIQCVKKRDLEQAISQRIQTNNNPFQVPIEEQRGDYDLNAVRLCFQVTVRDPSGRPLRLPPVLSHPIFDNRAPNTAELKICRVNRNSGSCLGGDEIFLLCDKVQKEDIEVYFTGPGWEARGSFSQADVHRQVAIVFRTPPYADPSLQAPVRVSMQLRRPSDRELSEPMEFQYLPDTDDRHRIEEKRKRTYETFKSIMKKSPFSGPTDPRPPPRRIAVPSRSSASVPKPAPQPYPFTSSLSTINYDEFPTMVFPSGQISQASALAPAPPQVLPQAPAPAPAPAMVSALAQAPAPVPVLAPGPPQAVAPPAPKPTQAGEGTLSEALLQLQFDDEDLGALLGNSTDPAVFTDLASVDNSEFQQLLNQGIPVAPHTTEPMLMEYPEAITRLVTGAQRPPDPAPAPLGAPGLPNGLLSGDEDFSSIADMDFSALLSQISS

| Molecule | stoichiometry N (acceptor (IκB) per donor (p65)) (YFP-p65) | stoichiometry N (YFP-tagged IKKα) |
| --- | --- | --- |
| IκB-mCherry (from UniProt P25963 1-317) (natural protein) | 0.5 | – |
| B1 | – | ~1 acceptor (IKKβ) per donor (IKKα) |
